{"source": "patent US10874712B2", "about": "“Methods, compounds and compositions for modulating blood brain barrier integrity and re-myelination” (University Health Network, priority 2015, dated 2020)", "molecules": {"B1": {"name": "sRGMc: truncated form of RGMc with the GPI anchor sequence removed, released as a soluble protein (SEQ ID NOs: 1 and 3) (protein, listed as Homo sapiens)", "chain": "CKILRCNAEYVSSTLSLRGGGSSGALRGGGGGGRGGGVGSGGLCRALRSYALCTRRTARTCRGDLAFHSAVHGIEDLMIQHNCSRQGPTAPPPPRGPALPGAGSGLPAPDPCDYEGRFSRLHGRPPGFLHCASFGDPHVRSFHHHFHTCRVQGAWPLLDNDFLFVQATSSPMALGANATATRKLTIIFKNMQECIDQKVYQAEVDNLPVAFEDGSINGGDRPGGSSLSIQTANPGNHVEIQAAYIGTTIIIRQTAGQLSFSIKVAEDVAMAFSAEQDLQLCVGGCPPSQRLSRSERNRRGAITIDTARRLCKEGLPVEDAYFHSCVFDVLISGDPNFTVAAQAALEDARAFLPDLEKLH"}}, "key": {"[1]": {"system": "MOG(35-55)-pulsed splenocytes of EAE-induced mice", "assay": "MOG-specific cytokine expression, secretion and proliferation of splenocytes", "assay_type": "in vivo, mouse", "procedure": "Mice were sacrificed on day 10 post-induction and single cells suspension of splenocytes were harvested as described above. Cells (1×10^6) were cultured in 10% FBS RPMI-1640 in the presence of 0 μg/mL, 30 μg/mL, or 100 μg/mL of MOG peptide for 15 h. Cells were then treated with GolgiStop (BD Biosciences) and incubated an additional 3 h and were subsequently stained.\nPlates were centrifuged at 1800 rpm for 5 min and the media was then harvested and stored at −80 C until analysis. Cytokine secretion of IL-17a, IL-6, TNF-α, and IFN-γ were assessed using the BD cytometric Bead Array (CBA) (BD Biosciences) according to the manufacturer's guidelines. Splenocyte proliferation was determined using CellTrace™ CFSE Cell Proliferation Kit for flow cytometry (Life Technologies) according to manufacturer's instructions. Briefly, 1×10^6 cells were suspended in warm PBS/0.1% BSA and stained with CFSE solution at a final concentration of 5 μM and incubated at 37° C. for 10 min. The staining was quenched using 5 volumes of ice-cold culture media, incubated for 5 min on ice, centrifuged at 700 rcf for 5 min, washed twice using culture medium, and re-suspended in 10% FBS complete RPMI-1640. Cells were then cultured in 0 μg/mL or 30 μg/mL of MOG(35-55) peptide for 72 h at 37° C., 5% CO2. […] Proliferation was analyzed by flow cytometry following staining in the presence of PI."}, "[2]": {"system": "Claudin 5 in b.End3 cells", "assay": "Claudin 5 expression in endothelial cells by Western blot", "assay_type": "cell-based, mouse", "conditions": "incubation with RGM proteins, vs PBS", "procedure": "Cells were pretreated for 6 h with PBS, RGMc, RGMa or RGMc+RGMa. Western blotting was performed on the lysates with Claudin-5 and GAPDH antibodies.\nNext, the BBB permeability was assessed by injecting mice with BSA, RGMa, RGMa plus RGMc and subsequently followed by assessment of Texas dye leakage using widefield imaging as an indication of BBB integrity. […] Thus, Claudin 5 expression following RGMa/c treatments of murine-derived brain endothelial cells (b.End3) was studied. B.En3 cells were grown up to 80% confluency and were treated with overnight incubation with RGM proteins."}, "EAE-induced mice [3]": {"system": "EAE-induced mice", "assay": "Histological staining (H&E, Luxol Fast Blue) of cervical spinal cord, inflammatory index", "assay_type": "in vivo, mouse", "conditions": "EAE day 18; vs vehicle", "procedure": "At day 18 post-EAE induction, mice were trans-cardially perfused with 20 mL PBS followed by 20 mL 4% paraformaldehyde in PBS (PFA) (Electron Microscopy Sciences) and 30 μm spinal cord cryosections were stained. The slides were washed in PBS for 3 min, followed by a 30 s wash in 50% ethanol (EtOH) and incubated overnight in Luxol Fast Blue (LFB) at 60° C. The sections were washed in 95% EtOH for 5 min, distilled water for 5 min prior to de-staining with […] for 10 min, and were then washed in 70% EtOH for 30 s, 5 min in MilliQ H2O, and sections were immersed in Harris Hematoxylin (Sigma-Aldrich) for 20 min and were rinsed in warm water to remove excess stain. Samples were dehydrated in 95% EtOH, immersed in alcoholic eosin Y (Sigma-Aldrich) for 15 s, dehydrated twice in 95% EtOH for 5 min, 100% EtOH for 5 min and xylene for 5 min. Slides were mounted with Permount (Fisher Scientific) and air-dried overnight at room temperature. Luxol Fast Blue (LFB) staining was quantified using relative staining intensity using Image J software. All intensities were normalized to a sham mouse spinal cord.\nCellular infiltration was quantified using an inflammatory index: 0, no inflammation; 1, cellular infiltration only in the perivascular areas and meninges; 2, mild cellular infiltration in the parenchyma (<10 cells); 3, moderate cellular infiltration in the parenchyma (10-49 cells); 4, moderate cellular infiltration in the parenchyma (50-99 cells); and 5, severe cellular infiltration in parenchyma (>100 cells)."}, "Neogenin": {"biological_target": "T1, Neogenin (Homo sapiens, UniProt Q92859)", "T1 construct": "His-tagged proteins (2.5 μg/mL of extracellular-Neogenin or sRGMa or sRGMc) were then coated onto each well; His tag (coated format); Alkaline phosphatase (AP) fusion (solution format, Ec-Neogenin-AP); made in house", "T1 sequence (Q92859 34-1105 limits assumed)": "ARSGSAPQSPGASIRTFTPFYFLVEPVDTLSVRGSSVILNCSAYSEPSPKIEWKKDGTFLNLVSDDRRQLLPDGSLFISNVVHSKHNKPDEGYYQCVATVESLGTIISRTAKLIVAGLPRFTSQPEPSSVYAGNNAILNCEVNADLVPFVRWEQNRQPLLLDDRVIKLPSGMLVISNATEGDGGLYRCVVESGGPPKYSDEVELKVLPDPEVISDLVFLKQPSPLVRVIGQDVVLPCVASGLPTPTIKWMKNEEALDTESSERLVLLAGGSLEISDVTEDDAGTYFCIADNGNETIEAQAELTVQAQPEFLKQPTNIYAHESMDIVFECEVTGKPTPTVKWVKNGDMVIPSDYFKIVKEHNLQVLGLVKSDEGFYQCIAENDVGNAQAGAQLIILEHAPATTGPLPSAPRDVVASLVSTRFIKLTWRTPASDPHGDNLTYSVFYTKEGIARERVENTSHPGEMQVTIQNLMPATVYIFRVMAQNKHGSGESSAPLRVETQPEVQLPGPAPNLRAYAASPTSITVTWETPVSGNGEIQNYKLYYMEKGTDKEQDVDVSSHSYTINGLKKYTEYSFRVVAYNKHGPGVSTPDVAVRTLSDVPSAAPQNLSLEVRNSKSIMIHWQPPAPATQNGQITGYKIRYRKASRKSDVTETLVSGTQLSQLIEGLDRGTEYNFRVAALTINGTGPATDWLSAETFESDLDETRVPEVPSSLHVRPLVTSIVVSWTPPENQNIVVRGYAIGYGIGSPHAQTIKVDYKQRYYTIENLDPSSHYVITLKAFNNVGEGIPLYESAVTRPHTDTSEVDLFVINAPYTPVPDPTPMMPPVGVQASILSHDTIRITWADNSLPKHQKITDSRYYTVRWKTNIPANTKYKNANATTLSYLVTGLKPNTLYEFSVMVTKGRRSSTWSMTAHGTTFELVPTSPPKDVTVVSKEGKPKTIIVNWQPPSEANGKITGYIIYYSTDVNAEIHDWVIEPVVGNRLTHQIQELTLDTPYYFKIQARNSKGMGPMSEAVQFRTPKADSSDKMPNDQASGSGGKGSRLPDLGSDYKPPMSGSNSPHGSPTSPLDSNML", "assay": "In vitro competition binding assay (AP-tagged proteins)", "conditions": "competition assay, FIG. 6C", "description": "(C) Binding of Neogenin to bovine serum albumin (Neogenin+BSA), to RGMa (Neogenin+RGMa), and to RGMc (Neogenin+RGMc) in RGMa-AP and in RGMc-AP. Constructs overexpressing His-tagged sRGMa, sRGMc and the extracellular domains of Neogenin (Ec-Neogenin) were coated onto Poly-L-Lysine coated wells. Alkaline Phosphatase (AP)-tagged proteins (EC-Neogenin or RGMa or RGMc) were then added to each well and incubated at 37° C. for 1 h. Each well was washed and equilibrated with AP developing buffer (100 mM NaHCO3, 1 mM MgCl2). The reaction was initiated using AP developing buffer supplemented with p-nitrophenyl phosphate and then stopped following color development by adding 50 μl (0.1M) NaOH. The absorbance of each reaction was measured using a microplate autoreader at 405 nm as described in the Examples. (D) Binding of Neogenin-AP to bovine serum albumin (Neogenin-AP+BSA), to RGMa (Neogenin-AP+RGMa), and to RGMc (Neogenin-AP+RGMc). Competition assay was performed as described in the Examples and above but in which the constructs were reversed.\nUsing a 96-well microtiter plate (Corning), wells coated with 100 μl (10 μg/mL) of Poly-L-Lysine (Sigma-Aldrich) incubated at 4° C. overnight were then washed 3× with 100 μl of PBST (+0.02% Tween-20). […] The absorbance of each reaction was measured using a microplate autoreader (BioTek EL311 AutoReader) at 405 nm."}, "EAE-induced mice [4]": {"system": "EAE-induced mice", "assay": "Experimental Autoimmune Encephalomyelitis (EAE) mouse model, body condition score", "assay_type": "in vivo", "design": "clinical severity (body condition score): dose or concentration left out as unconfirmed"}, "[5]": {"conditions": "intra-peritoneal injections, vs vehicle"}}}
{"molecule": "B1", "values": [{"measurement": "cytokine secretion (IL17, IFN-γ, TNFα, IL6) of MOG-pulsed splenocytes", "setting": "[1]; pulsed with MOG for 96 h, ELISA, vs vehicle", "result": "does not alter"}, {"measurement": "cytokine profile of splenocytes re-stimulated with MOG(35-55)", "setting": "[1]; re-stimulated for 18 hrs, vs control mice", "result": "no apparent effect"}, {"measurement": "Claudin 5 levels", "setting": "[2]", "result": "did affect Claudin5 levels"}, {"measurement": "extent of cellular infiltrates in cervical spinal cord", "setting": "EAE-induced mice [3]", "result": "significantly reduced"}, {"measurement": "extent of de-myelination (Luxol Fast Blue)", "setting": "EAE-induced mice [3]", "result": "significantly reduced"}, {"measurement": "inflammatory index score", "setting": "EAE-induced mice [3]", "result": "significantly lower"}, {"measurement": "interference with RGMa binding to Neogenin", "setting": "Neogenin", "result": "interferes with RGMa for its binding to Neogenin"}, {"measurement": "disease severity", "setting": "EAE-induced mice [4]; [5]", "result": "significantly abrogated disease severity"}, {"measurement": "incidence of EAE onset", "setting": "EAE-induced mice [4]; [5]", "result": "decreased the incidence of EAE onset"}, {"measurement": "onset of disease", "setting": "EAE-induced mice [4]; [5]", "result": "delayed the onset of disease"}, {"measurement": "day by which treated animals developed clinical symptoms", "setting": "EAE-induced mice [4]; intravenous sRGMc at days 3, 6 and 9", "result": "≤ 14", "unit": "day post-induction"}, {"measurement": "clinical severity of the disease (body condition score)", "setting": "EAE-induced mice [4]; intravenous sRGMc at days 3, 6 and 9 post-induction, vs vehicle, scored 18 days", "result": "significant decrease in clinical severity"}, {"measurement": "clinical severity (body condition score)", "setting": "EAE-induced mice [4]; sRGMc every three days, vs PBS, FIG. 6B", "result": "markedly reduced"}]}
